Experimental findings from patent US20220298218A1 (ANTAG THERAPEUTICS, published 2022) are described below.

T1: human GIP receptor (human, UniProt P48546 22-466)
T1 sequence (looked up): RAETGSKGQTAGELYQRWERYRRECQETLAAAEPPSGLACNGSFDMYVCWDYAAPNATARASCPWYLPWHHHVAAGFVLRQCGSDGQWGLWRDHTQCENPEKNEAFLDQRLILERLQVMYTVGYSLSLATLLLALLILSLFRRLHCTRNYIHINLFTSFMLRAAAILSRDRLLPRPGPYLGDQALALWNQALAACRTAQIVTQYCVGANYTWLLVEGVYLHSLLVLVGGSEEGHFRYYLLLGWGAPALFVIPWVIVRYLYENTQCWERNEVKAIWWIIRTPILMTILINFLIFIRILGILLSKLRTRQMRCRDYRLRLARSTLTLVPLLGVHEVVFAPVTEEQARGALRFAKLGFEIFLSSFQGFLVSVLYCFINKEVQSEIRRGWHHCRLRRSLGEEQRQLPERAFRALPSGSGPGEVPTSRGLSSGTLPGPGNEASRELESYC

B1: AT419 (peptide)
peptide: SGTFISDYSIAMDKIK([AEEA-AEEA-γGlu-C16 diacid])QQDFVNWLLAQKGKKNDW-OH
modifications: N-terminus assumed
SMILES: CC[C@H](C)[C@H](NC(=O)[C@H](CO)NC(=O)[C@H](Cc1ccc(O)cc1)NC(=O)[C@H](CC(=O)O)NC(=O)[C@H](CO)NC(=O)[C@@H](NC(=O)[C@H](Cc1ccccc1)NC(=O)[C@@H](NC(=O)CNC(=O)[C@@H](N)CO)[C@@H](C)O)[C@@H](C)CC)C(=O)N[C@@H](C)C(=O)N[C@@H](CCSC)C(=O)N[C@@H](CC(=O)O)C(=O)N[C@@H](CCCCN)C(=O)N[C@H](C(=O)N[C@@H](CCCCNC(=O)COCCOCCNC(=O)COCCOCCNC(=O)CC[C@H](NC(=O)CCCCCCCCCCCCCCC(=O)O)C(=O)O)C(=O)N[C@@H](CCC(N)=O)C(=O)N[C@@H](CCC(N)=O)C(=O)N[C@@H](CC(=O)O)C(=O)N[C@@H](Cc1ccccc1)C(=O)N[C@H](C(=O)N[C@@H](CC(N)=O)C(=O)N[C@@H](Cc1c[nH]c2ccccc12)C(=O)N[C@@H](CC(C)C)C(=O)N[C@@H](CC(C)C)C(=O)N[C@@H](C)C(=O)N[C@@H](CCC(N)=O)C(=O)N[C@@H](CCCCN)C(=O)NCC(=O)N[C@@H](CCCCN)C(=O)N[C@@H](CCCCN)C(=O)N[C@@H](CC(N)=O)C(=O)N[C@@H](CC(=O)O)C(=O)N[C@@H](Cc1c[nH]c2ccccc12)C(=O)O)C(C)C)[C@@H](C)CC
B2: AT418 (peptide)
peptide: EGTFISDYSIAMDKIK([AEEA-AEEA-AEEA-γGlu-C18 diacid])QQDFVNWLLAQKGKKNDW-OH
modifications: N-terminus assumed
SMILES: CC[C@H](C)[C@H](NC(=O)[C@H](CO)NC(=O)[C@H](Cc1ccc(O)cc1)NC(=O)[C@H](CC(=O)O)NC(=O)[C@H](CO)NC(=O)[C@@H](NC(=O)[C@H](Cc1ccccc1)NC(=O)[C@@H](NC(=O)CNC(=O)[C@@H](N)CCC(=O)O)[C@@H](C)O)[C@@H](C)CC)C(=O)N[C@@H](C)C(=O)N[C@@H](CCSC)C(=O)N[C@@H](CC(=O)O)C(=O)N[C@@H](CCCCN)C(=O)N[C@H](C(=O)N[C@@H](CCCCNC(=O)COCCOCCNC(=O)COCCOCCNC(=O)COCCOCCNC(=O)CC[C@H](NC(=O)CCCCCCCCCCCCCCCCC(=O)O)C(=O)O)C(=O)N[C@@H](CCC(N)=O)C(=O)N[C@@H](CCC(N)=O)C(=O)N[C@@H](CC(=O)O)C(=O)N[C@@H](Cc1ccccc1)C(=O)N[C@H](C(=O)N[C@@H](CC(N)=O)C(=O)N[C@@H](Cc1c[nH]c2ccccc12)C(=O)N[C@@H](CC(C)C)C(=O)N[C@@H](CC(C)C)C(=O)N[C@@H](C)C(=O)N[C@@H](CCC(N)=O)C(=O)N[C@@H](CCCCN)C(=O)NCC(=O)N[C@@H](CCCCN)C(=O)N[C@@H](CCCCN)C(=O)N[C@@H](CC(N)=O)C(=O)N[C@@H](CC(=O)O)C(=O)N[C@@H](Cc1c[nH]c2ccccc12)C(=O)O)C(C)C)[C@@H](C)CC
B3: AT367 (peptide)
peptide: TFISDYKIAMDKIHQQDFVNWLLAQKGKKNDWKHN
HELM: PEPTIDE1{T.F.I.S.D.Y.K.I.A.M.D.K.I.H.Q.Q.D.F.V.N.W.L.L.A.Q.K.G.K.K.N.D.W.K.H.N}|PEPTIDE2{[O=C(O)CCCCCCCCCCCCCCC(=O)[*:2]].[gGlu]}$PEPTIDE1,PEPTIDE2,7:R3-2:R2$$$V2.0; N-terminus assumed
SMILES: CC[C@H](C)[C@H](NC(=O)[C@H](CCCCNC(=O)CC[C@H](NC(=O)CCCCCCCCCCCCCCC(=O)O)C(=O)O)NC(=O)[C@H](Cc1ccc(O)cc1)NC(=O)[C@H](CC(=O)O)NC(=O)[C@H](CO)NC(=O)[C@@H](NC(=O)[C@H](Cc1ccccc1)NC(=O)[C@@H](N)[C@@H](C)O)[C@@H](C)CC)C(=O)N[C@@H](C)C(=O)N[C@@H](CCSC)C(=O)N[C@@H](CC(=O)O)C(=O)N[C@@H](CCCCN)C(=O)N[C@H](C(=O)N[C@@H](Cc1c[nH]cn1)C(=O)N[C@@H](CCC(N)=O)C(=O)N[C@@H](CCC(N)=O)C(=O)N[C@@H](CC(=O)O)C(=O)N[C@@H](Cc1ccccc1)C(=O)N[C@H](C(=O)N[C@@H](CC(N)=O)C(=O)N[C@@H](Cc1c[nH]c2ccccc12)C(=O)N[C@@H](CC(C)C)C(=O)N[C@@H](CC(C)C)C(=O)N[C@@H](C)C(=O)N[C@@H](CCC(N)=O)C(=O)N[C@@H](CCCCN)C(=O)NCC(=O)N[C@@H](CCCCN)C(=O)N[C@@H](CCCCN)C(=O)N[C@@H](CC(N)=O)C(=O)N[C@@H](CC(=O)O)C(=O)N[C@@H](Cc1c[nH]c2ccccc12)C(=O)N[C@@H](CCCCN)C(=O)N[C@@H](Cc1c[nH]cn1)C(=O)N[C@@H](CC(N)=O)C(=O)O)C(C)C)[C@@H](C)CC
B4: AT420 (peptide)
peptide: SGTFISDYSIAMDKIK([AEEA-AEEA-AEEA-γGlu-C16 diacid])QQDFVNWLLAQKGKKNDW-OH
modifications: N-terminus assumed
SMILES: CC[C@H](C)[C@H](NC(=O)[C@H](CO)NC(=O)[C@H](Cc1ccc(O)cc1)NC(=O)[C@H](CC(=O)O)NC(=O)[C@H](CO)NC(=O)[C@@H](NC(=O)[C@H](Cc1ccccc1)NC(=O)[C@@H](NC(=O)CNC(=O)[C@@H](N)CO)[C@@H](C)O)[C@@H](C)CC)C(=O)N[C@@H](C)C(=O)N[C@@H](CCSC)C(=O)N[C@@H](CC(=O)O)C(=O)N[C@@H](CCCCN)C(=O)N[C@H](C(=O)N[C@@H](CCCCNC(=O)COCCOCCNC(=O)COCCOCCNC(=O)COCCOCCNC(=O)CC[C@H](NC(=O)CCCCCCCCCCCCCCC(=O)O)C(=O)O)C(=O)N[C@@H](CCC(N)=O)C(=O)N[C@@H](CCC(N)=O)C(=O)N[C@@H](CC(=O)O)C(=O)N[C@@H](Cc1ccccc1)C(=O)N[C@H](C(=O)N[C@@H](CC(N)=O)C(=O)N[C@@H](Cc1c[nH]c2ccccc12)C(=O)N[C@@H](CC(C)C)C(=O)N[C@@H](CC(C)C)C(=O)N[C@@H](C)C(=O)N[C@@H](CCC(N)=O)C(=O)N[C@@H](CCCCN)C(=O)NCC(=O)N[C@@H](CCCCN)C(=O)N[C@@H](CCCCN)C(=O)N[C@@H](CC(N)=O)C(=O)N[C@@H](CC(=O)O)C(=O)N[C@@H](Cc1c[nH]c2ccccc12)C(=O)O)C(C)C)[C@@H](C)CC
B5: AT368 (peptide)
peptide: TFISDYKIAMDKIHQQDFVNWLLAQKGKKNDWKHNITQ
HELM: PEPTIDE1{T.F.I.S.D.Y.K.I.A.M.D.K.I.H.Q.Q.D.F.V.N.W.L.L.A.Q.K.G.K.K.N.D.W.K.H.N.I.T.Q}|PEPTIDE2{[O=C(O)CCCCCCCCCCCCCCC(=O)[*:2]].[gGlu]}$PEPTIDE1,PEPTIDE2,7:R3-2:R2$$$V2.0; N-terminus assumed
SMILES: CC[C@H](C)[C@H](NC(=O)[C@H](CCCCNC(=O)CC[C@H](NC(=O)CCCCCCCCCCCCCCC(=O)O)C(=O)O)NC(=O)[C@H](Cc1ccc(O)cc1)NC(=O)[C@H](CC(=O)O)NC(=O)[C@H](CO)NC(=O)[C@@H](NC(=O)[C@H](Cc1ccccc1)NC(=O)[C@@H](N)[C@@H](C)O)[C@@H](C)CC)C(=O)N[C@@H](C)C(=O)N[C@@H](CCSC)C(=O)N[C@@H](CC(=O)O)C(=O)N[C@@H](CCCCN)C(=O)N[C@H](C(=O)N[C@@H](Cc1c[nH]cn1)C(=O)N[C@@H](CCC(N)=O)C(=O)N[C@@H](CCC(N)=O)C(=O)N[C@@H](CC(=O)O)C(=O)N[C@@H](Cc1ccccc1)C(=O)N[C@H](C(=O)N[C@@H](CC(N)=O)C(=O)N[C@@H](Cc1c[nH]c2ccccc12)C(=O)N[C@@H](CC(C)C)C(=O)N[C@@H](CC(C)C)C(=O)N[C@@H](C)C(=O)N[C@@H](CCC(N)=O)C(=O)N[C@@H](CCCCN)C(=O)NCC(=O)N[C@@H](CCCCN)C(=O)N[C@@H](CCCCN)C(=O)N[C@@H](CC(N)=O)C(=O)N[C@@H](CC(=O)O)C(=O)N[C@@H](Cc1c[nH]c2ccccc12)C(=O)N[C@@H](CCCCN)C(=O)N[C@@H](Cc1c[nH]cn1)C(=O)N[C@@H](CC(N)=O)C(=O)N[C@H](C(=O)N[C@H](C(=O)N[C@@H](CCC(N)=O)C(=O)O)[C@@H](C)O)[C@@H](C)CC)C(C)C)[C@@H](C)CC

*1 amine or outer side, *2 acyl side, *3 side chain or, on linkers, in order; H or OH if unused. Where no end group is shown, it is not given here. Side-chain parts run from the residue outwards. The star is where a group is joined. C18 diacid = O=C(O)CCCCCCCCCCCCCCCCC(=O)*; C16 diacid = O=C(O)CCCCCCCCCCCCCCC(=O)*; γGlu = O=C(O)[C@H](CCC(=O)[*:2])N[*:1]; AEEA = NCCOCCOCC(=O)O

The assay deals with T1, human GIP receptor. Briefly: cell-based or functional assay.
Take B1: the “cAMP agonism Emax” value is 4.9, the “cAMP antagonism” value came to 215 nM, the “cAMP antagonism % inhib” value turned out to be 78% and the cAMP antagonism log is -6.7 log M.

As to B2, the “cAMP agonism Emax” value amounted to 7.8, the “cAMP antagonism” value came out at 68 nM, the “cAMP antagonism % inhib” value stood at 95% and the cAMP antagonism log was -7.2 log M.

Take B3: the “cAMP antagonism” value was determined as 6 nM, the “cAMP antagonism % inhib” value came out at 100% and the cAMP antagonism log is -8.3 log M.

For the molecule B4, the “cAMP antagonism” value came out at 237 nM, the “cAMP antagonism % inhib” value amounted to 100% and the cAMP antagonism log was -6.6 log M.

Consider B5, for which the “cAMP antagonism” value came to 9 nM, the “cAMP antagonism % inhib” value turned out to be 100% and the cAMP antagonism log is -8.1 log M.
